Data: patent US20050222009A1, “Dual phase - PNA conjugates for the delivery of PNA through the blood brain barrier” (priority 2003, published 2005)

System: PC12 cells
Assay: Measurement of cellular toxicity by neutral red uptake
Assay type: cell-based, rat
Details: 48 hours incubation (FIG. 2); compared with control PNA
Experimental: As an in vitro models for neurons and for BBB we used the human neuroblastoma NMB cell line the rat catecholaminergic cell line PC12 and the mice brain-derived endothelial cell line bEND. NMB cells were adapted to grow in Dulbecco modified Eagle medium (DMEM) with 10% Hyclone calf serum (Simantov et al., 1996). PC12 cells were grown in DMEM, 10% horse serum and 5% calf serum. bEND3 cells were grown in DMEM, %10 calf serum supplemented with 2 mM glutamine. Cells were maintained in a 10% CO2 humidified incubator at 37° C. Cells were routinely sub-cultured every four to five days. When cells (5×10^3) were plated in 96 wells, dishes were pretreated with poly-L-ornithine.
PC12 cells were incubated with PNA or peptide-PNA conjugates for 48 hours. At the end of the incubation, cell morphology was examined by light microscopy. Medium was replaced with medium containing neutral red. Neutral-red uptake was determined by spectrophotometer and was used as an index for cellular toxicity (FIG. 2).

Substance	neutral red uptake to PC12 cells (index for cellular toxicity)
CHK6HC-TTT GCT CTT ACT CAT-HAIYPRH [KBP11]	no significant difference
CHK6HC-TTT GCT CTT ACT CAT-THRPPMWSPVWP [KBP10]	no significant difference
